Results on ten variants are retold here after IntAct's records for PubMed 28515320.

First the molecules themselves.
B1: Nectin-2 (Homo sapiens), Q92692 (parent)
chain: MARAAALLPSRSPPTPLLWPLLLLLLLETGAQDVRVQVLPEVRGQLGGTVELPCHLLPPVPGLYISLVTWQRPDAPANHQNVAAFHPKMGPSFPSPKPGSERLSFVSAKQSTGQDTEAELQDATLALHGLTVEDEGNYTCEFATFPKGSVRGMTWLRVIAKPKNQAEAQKVTFSQDPTTVALCISKEGRPPARISWLSSLDWEAKETQVSGTLAGTVTVTSRFTLVPSGRADGVTVTCKVEHESFEEPALIPVTLSVRYPPEVSISGYDDNWYLGRTDATLSCDVRSNPEPTGYDWSTTSGTFPTSAVAQGSQLVIHAVDSLFNTTFVCTVTNAVGMGRAEQVIFVRETPNTAGAGATGGIIGGIIAAIIATAVAATGILICRQQRKEQTLQGAEEDEDLEGPPSYKPPTPKAKLEAQEMPSQLFTLGASEHSPLKTPYFDAGASCTEQEMPRYHELPTLEERSGPLHPGATSLGSPIPVPPGPPAVEDVSLDLEDEEGEEEEEYLDKINPIYDALSYSSPSDSYQGKGFVMSRAMYV
partner: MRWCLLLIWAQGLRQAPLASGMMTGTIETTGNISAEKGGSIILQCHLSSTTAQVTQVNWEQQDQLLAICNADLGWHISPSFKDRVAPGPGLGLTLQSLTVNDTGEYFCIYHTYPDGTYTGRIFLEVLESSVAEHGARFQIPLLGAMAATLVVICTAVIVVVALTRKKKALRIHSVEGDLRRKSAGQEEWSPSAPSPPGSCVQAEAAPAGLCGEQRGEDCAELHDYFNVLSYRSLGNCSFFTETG

The variants in this assay derive from B1. Particulars: with tigit_human TIGIT.
On to G90A, for which the “effect of a mutation on the interaction” value is reported as “decreasing interaction strength”.

For A83R, the “effect of a mutation on the interaction” value was “decreasing interaction strength”.

On to A83V, for which the “effect of a mutation on the interaction” value is given as “decreasing interaction strength”.

For the variant M89A, the “effect of a mutation on the interaction” value is given as “decreasing interaction strength”.

Take H86A: the “effect of a mutation on the interaction” value is given as “decreasing interaction strength”.

On to E141A, for which the “effect of a mutation on the interaction” value is “with no effect”.

As for E101A, the “effect of a mutation on the interaction” value is reported as “with no effect”.

For the variant F145A, the “effect of a mutation on the interaction” value was “disrupting interaction strength”.

L67Q: the “effect of a mutation on the interaction” value is reported as “decreasing interaction strength”.

With L67A, the “effect of a mutation on the interaction” value is given as “decreasing interaction strength”.
